Test results: patent US20050215629
Where a chain is given by its changes, count along the chain named.

T1: synthetic phosphotyrosine peptide Arg-Arg-Leu-Ile-Glu-Asp-Ala-Glu-Tyr-Ala-Ala-Arg-Gly, wherein the tyrosine is phosphorylated
T1 chain: RRLIEDAEYAARG

B1: Flag-tagged PRL-1 (protein)
chain: MARMNRPAPVEVTYKNMRFLITHNPTNATLNKFIEELKKYGVTTIVRVCEATYDTTLVEKEGIHVLDWPFDDGAPPSNQIVDDWLSLVKIKFREEPGCCIAVHCVAGLGRAPVLVALALIEGGMKYEDAVQFIRQKRRGAFNSKQLLYLEKYRPKMRLRFKDSNGHRNNCCIQ
B2: GST fusion protein of PRL-1R86 (protein)
chain: B1 chain with S86R
B3: Flag-tagged PRL-1R86 mutant (protein)
chain: B1 chain with S86R
B4: GST fusion protein of human PRL-1 (protein)
chain: B1 chain
B5: GST fusion protein of human PRL-2 (protein)
chain: MNRPAPVEISYENMRFLITHNPTNATLNKFTEELKKYGVTTLVRVCDATYDKAPVEKEGIHVLDWPFDDGAPPPNQIVDDWLNLLKTKFREEPGCCVAVHCVAGLGRAPVLVALALIECGMKYEDAVQFIRQKRRGAFNSKQLLYLEKYRPKMRLRFRDTNGHCCVQ

Target: T1, synthetic phosphotyrosine peptide …

Row | Protein | immunocomplex PTPase assay (anti-Flag immunocomplexes from NIH3T3 transfectants) | immunocomplex PTPase assay (anti-Flag immunocomplexes from WM9 transfectants) | in vitro PTPase assay
1 | B1 | a markedly higher PTPase activity (about 23 folds) over that of control transfectants | showed phosphatase activities well above the background activity of the vector control cells | –
2 | B2 | – | – | showed in vitro PTPase activity similar to that of wild type PRL-1
3 | B3 | – | showed phosphatase activities well above the background activity of the vector control cells | –
4 | B4 | – | – | PTPase activity of recombinant PRL-1, PRL-2 and PRL-3 in dephosphorylating a synthetic phosphotyrosine peptide substrate
5 | B5 | – | – | PTPase activity of recombinant PRL-1, PRL-2 and PRL-3 in dephosphorylating a synthetic phosphotyrosine peptide substrate
